In patent US20180031558A1, “BIOMARKERS OF ACUTE LIVER INJURY” (The Regents of the University of Michigan, priority 2014, published 2018):
“Also recorded” adds a separate entry of the source. Read-outs that look alike come from different tables or passages of the source.

How the values were obtained:
[1] = system: primary mouse hepatocytes; experiment: Viable cell count by trypan blue staining of treated primary hepatocytes; type: cell-based; conditions: FasL 0.5 μg/ml, APAP 1 mM
Description: FIG. 2. Primary hepatocytes release CPS1 in response to difference types of liver injury. A: Primary mouse hepatocytes were cultured in the presence of hypoosmotic media (200 mOsm/L), FasL (0.5 μg/ml), and acetaminophen (APAP, 1 mM). The concentrated cell culture media and total cell lysates were used for immunoblotting with antibodies to the indicated proteins. B: After each treatment as in panel A, the viable cell count was determined using trypan blue staining after trypsin treatment. Each bar represents the mean of 10 to 15 fields. […] C: Mouse hepatocytes were challenged with FasL, APAP and hypoosmosis as in Panel A. Cells were fixed and immunostained with CPS1 (red) and counter stained with DAPI (blue). Arrows highlight areas with less dense CPS1 staining. Scale bar=20 μm.
Primary hepatocytes from mice were isolated (Snider et al. J Cell Biol 195: 217-29, 2011.; herein incorporated by reference in its entirety). The liver was perfused with 3-5 ml of perfusion media through the portal vein with a flow rate of 3 ml/min followed by perfusion with 15-20 ml of digestion media containing 150 units/ml of collagenase-II (Worthington) at the same flow rate. […] Serum ALT levels were determined using a Vetscan-vs2 instrument (ABAXIS) using the comprehensive diagnostic profile cartridge or using Unit for Laboratory Animal Medicine (ULAM) core facility at University of Michigan. […]

liver [2] = experiment: FasL and APAP induced mouse liver injury, histological analysis of liver sections; type: in vivo; conditions: mice, intraperitoneal; FasL 0.15 μg/g, 4 h; APAP 700 mg/Kg, 8 h
Description: FIG. 4. CPS1 is released into serum during FasL and APAP induced mouse liver injury. Mice were injected with FasL (0.15 μg/g) and APAP (700 mg/Kg) and sacrificed after 4 h and 8 h, respectively. Liver damage was analyzed serologically, biochemically and histologically. Panel A: Immunoblots of serum CPS1, HMGB1 and caspase activation using total liver lysate. Coomassie stain of serum IgG heavy chain (just above the 50 kDa prominent species) and IgG light chain (25 kDa), and an actin blot of total liver lysates are included as loading controls. Serum ALT of the individual mice is also indicated (bottom of panel). Panel B: Hematoxylin and eosin stained liver sections. […] Scale bar=40 μm.
(§1) Primary hepatocytes from mice were isolated (Snider et al. J Cell Biol 195: 217-29, 2011.; herein incorporated by reference in its entirety). […] Serum ALT levels were determined using a Vetscan-vs2 instrument (ABAXIS) using the comprehensive diagnostic profile cartridge or using Unit for Laboratory Animal Medicine (ULAM) core facility at University of Michigan. […]
Mice were injected with FasL in saline (to induce apoptosis), or with APAP in DMSO (to induced necrosis) or were injected with vehicle (saline or DMSO). The serum and liver histology were then analyzed. For both the APAP and FasL conditions, CPS1 was more easily detected in the serum of the mice and parallels the elevation of ALT (FIG. 4A). […]

liver [3] = conditions: mice fed 0.1% DDC for 10 days, 15 days, 6 weeks, 3 months
Description: Serum CPS1 in chronic liver injury. Panel A: The presence of serum CPS1 and HMGB1 was tested in animals exposed to the hepatotoxin DDC for 10 days, 15 days, 6 weeks and 3 months. Corresponding serum ALT values are also included. […] Each lane corresponds to serum from separate mice. Two mice for each time point were shown except the control. Panel B: Hematoxylin and eosin staining of livers from control and DDC-administered mice. Scale bar=40 μm. Panels C and D: Human sera from patients with chronic hepatitis B virus infection (HBV), chronic hepatitis C infection (HCV), or controls were analyzed for the presence of CPS1 and HMGB1. Serum from APAP and from control donors with normal ALT were used as positive and negative controls, respectively. […] Each lane represents separate patients or donors.
To test the CPS1 release during chronic mouse liver injury, mice were fed 0.1% DDC (a porphyrinogenic hepatotoxin) for 10-days, 15-days, 6-weeks and 3-months and serum CPS1 levels were analyzed.

[4] = Half-life of CPS1 in mouse serum after FasL injection (western blot densitometry); type: in vivo
Description: FIG. 6. CPS1 has a short half-life in mouse serum. In order to determine the half-life of CPS1 in mouse serum, mice (five total) were injected with FasL (0.075 μg/g) and blood was collected from the same animal via tail vain at the indicated time points. Sera were used to determine serum ALT, or mixed with 2× SDS sample buffer to measure circulating serum CPS1 by western blot analysis. CPS1 pixel intensity (CPS1 OD) at each time point was determined by densitometry scanning. Panels A-D: Immunoblots of time-dependent serum CPS1 levels of four individual mice are shown. CPS1 OD and serum ALT values at each time point are indicated. A Coomassie stain of serum is included as loading control. To determine the half-life of serum CPS1, the OD values of 24 h to 32 h of all five mice were used. Assuming an exponential decay, half-life of CPS1 for each time interval was calculated using the equation; Ending amount=Beginning amount/[…]; where n=number of half-lives. […]
as §1

[5] = rats; cited from earlier work

Q: With CC(=O)Nc1ccc(O)cc1 [APAP, acetaminophen] as the molecule, how does the “cell death (viable cell count, trypan blue)” value [1] read?
A: Its value is “significant cell deaths”.

Q: And the “liver histology (hematoxylin and eosin)” value (liver [2])?
A: Its value is “necrotic cell death”.

Q: For CCOC(=O)C1=C(C)NC(C)=C(C(=O)OCC)C1C [DDC], which “liver histology (hematoxylin and eosin)” value (liver [3]) is on record?
A: Its value is “early evidence of cell drop off at days 10 and 15”.

Q: With “FasL: Fas ligand, which induces hepatocyte cell death (apoptosis)” as the molecule, how does the “liver histology (hematoxylin and eosin)” value (liver [2]) read?
A: Its value is “marked liver hemorrhage; also recorded: severe hemorrhage formation”.

B1: CPS1: most abundant mitochondrial matrix protein of liver, urea cycle enzyme; serum biomarker of acute liver injury (protein, UniProt P31327 39-1500, looked up)
Carbamoyl-phosphate synthase …: LSVKAQTAHIVLEDGTKMKGYSFGHPSSVAGEVVFNTGLGGYPEAITDPAYKGQILTMANPIIGNGGAPDTTALDELGLSKYLESNGIKVSGLLVLDYSKDYNHWLATKSLGQWLQEEKVPAIYGVDTRMLTKIIRDKGTMLGKIEFEGQPVDFVDPNKQNLIAEVSTKDVKVYGKGNPTKVVAVDCGIKNNVIRLLVKRGAEVHLVPWNHDFTKMEYDGILIAGGPGNPALAEPLIQNVRKILESDRKEPLFGISTGNLITGLAAGAKTYKMSMANRGQNQPVLNITNKQAFITAQNHGYALDNTLPAGWKPLFVNVNDQTNEGIMHESKPFFAVQFHPEVTPGPIDTEYLFDSFFSLIKKGKATTITSVLPKPALVASRVEVSKVLILGSGGLSIGQAGEFDYSGSQAVKAMKEENVKTVLMNPNIASVQTNEVGLKQADTVYFLPITPQFVTEVIKAEQPDGLILGMGGQTALNCGVELFKRGVLKEYGVKVLGTSVESIMATEDRQLFSDKLNEINEKIAPSFAVESIEDALKAADTIGYPVMIRSAYALGGLGSGICPNRETLMDLSTKAFAMTNQILVEKSVTGWKEIEYEVVRDADDNCVTVCNMENVDAMGVHTGDSVVVAPAQTLSNAEFQMLRRTSINVVRHLGIVGECNIQFALHPTSMEYCIIEVNARLSRSSALASKATGYPLAFIAAKIALGIPLPEIKNVVSGKTSACFEPSLDYMVTKIPRWDLDRFHGTSSRIGSSMKSVGEVMAIGRTFEESFQKALRMCHPSIEGFTPRLPMNKEWPSNLDLRKELSEPSSTRIYAIAKAIDDNMSLDEIEKLTYIDKWFLYKMRDILNMEKTLKGLNSESMTEETLKRAKEIGFSDKQISKCLGLTEAQTRELRLKKNIHPWVKQIDTLAAEYPSVTNYLYVTYNGQEHDVNFDDHGMMVLGCGPYHIGSSVEFDWCAVSSIRTLRQLGKKTVVVNCNPETVSTDFDECDKLYFEELSLERILDIYHQEACGGCIISVGGQIPNNLAVPLYKNGVKIMGTSPLQIDRAEDRSIFSAVLDELKVAQAPWKAVNTLNEALEFAKSVDYPCLLRPSYVLSGSAMNVVFSEDEMKKFLEEATRVSQEHPVVLTKFVEGAREVEMDAVGKDGRVISHAISEHVEDAGVHSGDATLMLPTQTISQGAIEKVKDATRKIAKAFAISGPFNVQFLVKGNDVLVIECNLRASRSFPFVSKTLGVDFIDVATKVMIGENVDEKHLPTLDHPIIPADYVAIKAPMFSWPRLRDADPILRCEMASTGEVACFGEGIHTAFLKAMLSTGFKIPQKGILIGIQQSFRPRFLGVAEQLHNEGFKLFATEATSDWLNANNVPATPVAWPSQEGQNPSLSSIRKLIRDGSIDLVINLPNNNTKFVHDNYVIRRTAVDSGIPLLTNFQVTKLFAEAVQKSRKVDSKSLFHYRQYSAGKAA
Q: Which results are given for B1?
A: average half-life of CPS1 in mouse serum ([4]; mice injected with FasL 0.075 μg/g, OD values of 24 h to 32 h of five mice, mean±standard error of mean): 2.1 ± 0.15 h; half-life of CPS1 in mouse serum ([4]; mice, FasL treatment 0.075 μg/g, combination of turnover and ongoing release): ~2.1 h; half-life of CPS1 [5]: 1.12 h
